This assay addresses T1, eIF3c/NIP1 (S. cerevisiae, UniProt P32497 1-812).
T1 construct: eIF3c/NIP1 subunit of yeast eIF3; 50 ug = 0.5 nmol (about 100 kDa) fits a whole protein (surmise); source: purified
Put plainly: ITC; VP-ITC; 100 uM a/TIF32^276-494 injected in 20 ul aliquots into the cell with 10 uM c/NIP1; 150 mM KCl, 10 mM Hepes pH 7.5, 5% glycerol. The note with it: both partners purified. On the technique in general: ITC needs no label: the signal is the heat of the interaction.

T1 sequence (P32497 whole entry): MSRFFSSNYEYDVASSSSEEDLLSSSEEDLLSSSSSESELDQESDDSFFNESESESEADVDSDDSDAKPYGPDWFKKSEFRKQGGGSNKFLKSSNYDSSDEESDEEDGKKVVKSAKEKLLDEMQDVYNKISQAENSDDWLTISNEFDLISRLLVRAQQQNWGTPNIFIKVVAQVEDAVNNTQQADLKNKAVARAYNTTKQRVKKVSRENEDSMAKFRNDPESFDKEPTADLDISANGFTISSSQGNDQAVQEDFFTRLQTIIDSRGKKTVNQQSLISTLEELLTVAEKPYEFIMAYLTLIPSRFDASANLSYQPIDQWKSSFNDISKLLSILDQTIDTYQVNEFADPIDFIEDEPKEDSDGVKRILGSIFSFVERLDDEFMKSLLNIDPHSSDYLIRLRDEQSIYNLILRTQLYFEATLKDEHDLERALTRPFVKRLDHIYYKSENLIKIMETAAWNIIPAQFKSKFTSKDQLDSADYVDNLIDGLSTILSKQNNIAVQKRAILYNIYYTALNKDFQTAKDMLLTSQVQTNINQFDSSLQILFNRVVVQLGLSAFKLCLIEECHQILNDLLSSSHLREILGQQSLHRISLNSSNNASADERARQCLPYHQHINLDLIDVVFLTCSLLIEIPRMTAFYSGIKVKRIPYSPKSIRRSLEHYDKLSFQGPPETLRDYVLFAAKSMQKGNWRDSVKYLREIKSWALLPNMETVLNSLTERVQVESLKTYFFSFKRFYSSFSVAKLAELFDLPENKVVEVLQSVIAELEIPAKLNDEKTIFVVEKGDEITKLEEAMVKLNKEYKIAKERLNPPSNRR

B1: a/TIF32^276-494 (PCI domain of eIF3a/TIF32) (domain or fragment, S. cerevisiae, UniProt P38249 276-494, looked up)
chain: PSTLANYYENLVKVFFVSGDPLLHTTAWKKFYKLYSTNPRATEEEFKTYSSTIFLSAISTQLDEIPSIGYDPHLRMYRLLNLDAKPTRKEMLQSIIEDESIYGKVDEELKELYDIIEVNFDVDTVKQQLENLLVKLSSKTYFSQYIAPLRDVIMRRVFVAASQKFTTVSQSELYKLATLPAPLDLSAWDIEKSLLQAAVEDYVSITIDHESAKVTFAKD
notes: Detailed purification scheme is in Supplementary Methods; also called a/TIF32-PCI; a/TIF32 PCI domain
As for B1, the Kd (as a rule, the constant that tells how readily two partners part at equilibrium) is 158 nM; the dH is -10.2 kcal/mol; the stoichiometry N (in general, a count of units in the complex or per binding partner) came to 0.944.

These data come from publication PMC3973348, “Structural integrity of the PCI domain of eIF3a/TIF32 is required for mRNA recruitment to the 43S pre-initiation complexes” (Nucleic Acids Research, 2014).
